B1: Anti-sigma factor RshA (Mycobacterium tuberculosis (strain ATCC 25618 / P9WJ69 (parent)
chain: MSENCGPTDAHADHDDSHGGMGCAEVIAEVWTLLDGECTPETRERLRRHLEACPGCLRHYGLEERIKALIGTKCRGDRAPEGLRERLRLEIRRTTIIRGGP

Variants of: B1
Settings: with pstp_myctu pstP

Row | Variant | effect of a mutation on the interaction
1 | MSENCGPTDAHADHDDSHGGMGCAEVIAEVWTLLDGECTPETRERLRRHLEACPGCLRHYGLEERIKALIGTKCRGDRAPEGLRERLRLEIRRATIIRGGP [T94A] | disrupting interaction
